The record followed here is patent US9587002B2, “Sequence of nucleotides and peptides GSE 24.2 of dyskerin, which can induce telomerase activity, method for obtaining same, therapeutic compositions and applications thereof” (CONSEJO SUPERIOR DE INVESTIGACIONES CIENTIFICAS, priority 2005, dated 2017).

The test system of one data set is p38. The experiment in a line: Activation of p38 by cisplatin in 293T cell lines (Western blot). The data set is classed as cell-based, human. Conditions: 293T cells stably expressing GSE 24.2 vs pLNCX; cisplatin 6 hours. As to the method:
FIG. 2.—Cell viability and activation of the JNK and p38 death pathways in 293T cell lines: pLNCX and 24.2, treated with cisplatin. A) Cell viability. After seeding the 293T cells: expressing the empty vector (pLNCX) and GSE 24.2 (24.2) in 24-well plates, they were incubated with concentrations between 0-100 μg/ml of cisplatin. The cell viability was measured by means of the crystal violet technique after 72 hours of exposure to the drug. The data represent the mean of two experiments performed in quadruplicate. B) Activation kinetics. Subsequently, the activation of JNK and p38 was studied using antibodies that specifically recognise the active forms. As a load control, the levels of JNK-1 were detected.
The pLNCX24-2 plasmid containing GSE of the same name was transfected in a stable manner in the 293T cells and, as a control, the pLNCX empty vector was transfected. After verifying, by means of PCR, that the 24.2 cell line contained this insert (data not shown), the response to cisplatin was studied, creating a viability curve with this drug. […] JNK and p38 are MAPKs that are activated in response to genotoxic agents (Sanchez-Perez et al., 1998).
Western Blot and antibodies. 20 μg of protein were separated in SDS-polyacrylamide gels; subsequently, they were transferred to Immobilon-P membranes (Millipore) by humid transfer. […]

Another data set concerns c-MYC promoter. The experiment in a line: c-MYC-luc reporter (px3.2) luciferase assay in 293T cells. It is filed as cell-based, human. As to the method:
FIG. 12.—The promoter activity of c-MYC is induced by the GSE 24.2 peptide. A) Schematic representation of the c-MYC promoter, indicating the different constructs used in the experiments. B) 293T cells were co-transfected with the specified plasmids (10 μg/DNA per million cells) and with the px3.2 c-MYC-luc reporter (1 μg per million cells). C) The specified cell lines were transfected with the px3.2 c-MYC-luc reporter (1 μg per million cells). D) The specified cell lines were transfected with the different constructs of the c-MYC-luc reporter (1 μg per million cells). After 24 hours of transfection, the luciferase activity was analysed as specified above. CMV-Renilla (0.1 μg/ml per million cells) was used as a control for the transfection efficiency. The data represent the mean of two experiments performed in quadruplicate.
FIG. 13.—The activity of the c-MYC promoter induced by the GSE 24.2 peptide is dependent on the NHE III element. A) Schematic representation of the mutations generated in the NHE III element, px3.2 (SEQ ID NO: 21), px3.2 G12A (SEQ ID NO: 22), px3.2 G17A (SEQ ID NO: 23), and px3.2 G26T/G27T (SEQ ID NO: 24). B) The 293T cells were co-transfected with different constructs (10 μg/DNA per million cells) and with the different mutants of the px3.2 reporter plasmid (1 μg per million cells). C) The cell lines specified in the figure were transfected with the different mutants of the px3.2 reporter (1 μg per million cells). After 24 h of transfection, the luciferase activity was analysed as specified above. CMV-Renilla (0.1 μg/ml per million cells) was used as a control for the transfection efficiency. The data represent the mean of two experiments performed in quadruplicate.
The transcription of the c-myc gene is controlled by two different promoters and it seems to be repressed by a domain hypersensitive to DNase located between the P0 and P1 promoters (NHEIII). Thus, four different constructs were used that contained 3.2 kb of the transcription initiation point of c-myc bound to the luciferase gene (FIG. 12a).
This transcription factor, c-myc, should therefore activate the transcription of hTERT. Thus, three mutants deleted in the c-myc promoter were used to define the necessary region for the GSE 24.2 peptide to perform its inducing activity.
Since the NHEIII region has been described as an inhibitor of the transcription of c-myc, several mutants of the NHEIII region were constructed by Guanine modification of the purine-rich region. The 27 Guanines present in the NHEIII region are involved in maintaining the secondary structure of the G-quadruplexes of the purine-rich region (Pu27). The following were mutated: G12A, located on the second guanine of the second quartet; G17A, on the second triplet of Guanines; and, finally, two consecutive Guanines (G26A/G27A) at the end of the purine-rich region (FIG. 13a). These promoter construct were transfected in cells that express, either the empty vector, or the vectors containing the DKC protein or the GSE 24.2 peptide.
Directed mutagenesis. The specific mutations of guanine in the NHEIII region of the c-myc gene promoter, px3.2, were performed using the Quickchange X-L directed mutagenesis kit (Strategene) in accordance with the manufacturer's instructions.

B1: GSE 24.2: 165-pb cDNA fragment (nucleotides 268 to 433) of human dyskerin, SEQ ID NO1, encoding peptide SEQ ID NO2, expressed from pLNCX plasmid (nucleic acid, listed as Homo sapiens)
DNA: GGTTTCATTAATCTTGACAAGCCCTCTAACCCCTCTTCCCATGAGGTGGTAGCCTGGATTCGACGGATACTTCGGGTGGAGAAGACAGGGCACAGTGGTACTCTGGATCCCAAGGTGACTGGTTGTTTAATCGTGTGCATAGAACGAGCCACTCGCTTGGTGAAG
modifications: expressed from pLNCX plasmid; CDS (1)..(165) Sequence GSE 24.2
As to B1, the “dose of cisplatin required to activate p38” value with p38 was “a greater dose of cisplatin is required to activate both kinases”. The “c-myc promoter (px3.2myc) activity, transient co-transfection” value in the data set on c-MYC promoter (293T cells, GSE 24.2 plasmid vs pLNCX jointly with px3.2myc reporter) is on record as “A similar result was obtained”. The “transcription from deletion mutants of the c-myc promoter” value in the data set with c-MYC promoter (GSE 24.2 cells vs control cells, three deleted mutants) was “only those contained in the distal region of promoters P1 and P0, which include the NHEIII domain, were capable of maintaining the transcription”. In the data set with c-MYC promoter (cells expressing empty vector, DKC or GSE 24.2), the “activation of WT px3.2 myc promoter” value is reported as “only the WT px3,2 myc promoter was capable of being activated”. In addition, the “activation of Pu27 (NHEIII) mutant c-myc promoters” value with c-MYC promoter (mutants G12A, G17A, G26A/G27A) is “at very low levels”. Besides, the “c-myc promoter (px3.2myc) activity, GSE 24.2 cells vs control cells” value in the data set on c-MYC promoter (stable cell lines transfected with px3.2myc) is “three-fold increase in activity”.
